In article PMC7615680, “In vitro construction of the COQ metabolon unveils the molecular determinants of coenzyme Q biosynthesis” (Nature catalysis, 2024):

Key:
[1] = biological target: T1, COQ3 (tetrapod ancestral) (Tetrapoda, UniProt Z9LPW8APZ1); assay: microscale thermophoresis; type: binding
T1 construct: expressed in E. coli
T1 sequence (Z9LPW8APZ1 39-362): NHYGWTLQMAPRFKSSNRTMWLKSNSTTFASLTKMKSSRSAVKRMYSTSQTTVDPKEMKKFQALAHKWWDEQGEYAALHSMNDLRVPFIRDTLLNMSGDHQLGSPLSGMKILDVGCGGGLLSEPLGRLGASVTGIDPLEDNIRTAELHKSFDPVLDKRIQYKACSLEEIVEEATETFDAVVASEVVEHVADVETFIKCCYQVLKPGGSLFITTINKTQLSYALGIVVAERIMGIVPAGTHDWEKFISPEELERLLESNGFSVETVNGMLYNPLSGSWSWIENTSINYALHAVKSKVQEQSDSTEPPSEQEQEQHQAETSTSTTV

[2] = test system: CC(C)=CCc1cc(C(=O)O)cc(O)c1O; assay: purified protein; conditions: 2 mM SAM, no added Mg2+, pH 7.2, 25 °C
COc1cc(O)cc(CC=C(C)C)c1O = assay: purified protein; conditions: 1 mM SAM, 150 uM NADH, 25 °C
[3] = test system: NC(=O)C1=CN([C@@H]2O[C@H](COP(=O)(O)OP(=O)(O)OC[C@H]3O[C@@H](n4cnc5c(N)ncnc54)[C@H](O)[C@@H]3O)[C@@H](O)[C@H]2O)C=CC1; assay: purified protein; conditions: 700 uM non-prenylated 5ox, without COQ9, 0.05% DDM, pH 7.2, 25 °C
[4] = test system: Nc1ncnc2c1ncn2[C@@H]1O[C@H](COP(=O)(O)OP(=O)(O)OP(=O)(O)O)[C@@H](O)[C@H]1O; assay: ATPase activity (Malachite green phosphate); type: biochemical, Tetrapoda; conditions: basal ATPase; no COQ partner or intermediate

**Q.** With `CC(C)=CCc1cc(C(=O)O)cc(O)c1O` [compound 2, 3,4-dihydroxy-5-(3-methylbut-2-en-1-yl)benzoic acid] as the compound, how does the Kd [1] read?
**A.** 6.5 µM

**Q.** For COQ3 (tetrapod ancestral) (Tetrapoda), which Km [2] is on record?
**A.** 887.9 µM

**Q.** What about the kcat [2] of the same compound?
**A.** 0.0467 s⁻¹

**Q.** For COQ5 (tetrapod ancestral) (Tetrapoda), which Km (COc1cc(O)cc(CC=C(C)C)c1O) is on record?
**A.** 444 µM

**Q.** What about the kcat (COc1cc(O)cc(CC=C(C)C)c1O) of the same compound?
**A.** 0.04 s⁻¹

**Q.** Which results are given for COQ7 (tetrapod ancestral) (Tetrapoda)?
**A.** Km [3]: 141.7 µM; kcat [3]: 0.02 s⁻¹

**Q.** What does the source list for COQ8B (tetrapod ancestral) (Tetrapoda)?
**A.** Km [4]: 26.6 µM; kcat [4]: 0.0067 s⁻¹
